Test results from paper PMC10786891, “Massively parallel profiling of RNA-targeting CRISPR-Cas13d”.

T1: EsCas13d, nuclease-dead (Eubacterium siraeum, UniProt B0MS50, R295A;H300A;R849A;H854A)
T1 sequence: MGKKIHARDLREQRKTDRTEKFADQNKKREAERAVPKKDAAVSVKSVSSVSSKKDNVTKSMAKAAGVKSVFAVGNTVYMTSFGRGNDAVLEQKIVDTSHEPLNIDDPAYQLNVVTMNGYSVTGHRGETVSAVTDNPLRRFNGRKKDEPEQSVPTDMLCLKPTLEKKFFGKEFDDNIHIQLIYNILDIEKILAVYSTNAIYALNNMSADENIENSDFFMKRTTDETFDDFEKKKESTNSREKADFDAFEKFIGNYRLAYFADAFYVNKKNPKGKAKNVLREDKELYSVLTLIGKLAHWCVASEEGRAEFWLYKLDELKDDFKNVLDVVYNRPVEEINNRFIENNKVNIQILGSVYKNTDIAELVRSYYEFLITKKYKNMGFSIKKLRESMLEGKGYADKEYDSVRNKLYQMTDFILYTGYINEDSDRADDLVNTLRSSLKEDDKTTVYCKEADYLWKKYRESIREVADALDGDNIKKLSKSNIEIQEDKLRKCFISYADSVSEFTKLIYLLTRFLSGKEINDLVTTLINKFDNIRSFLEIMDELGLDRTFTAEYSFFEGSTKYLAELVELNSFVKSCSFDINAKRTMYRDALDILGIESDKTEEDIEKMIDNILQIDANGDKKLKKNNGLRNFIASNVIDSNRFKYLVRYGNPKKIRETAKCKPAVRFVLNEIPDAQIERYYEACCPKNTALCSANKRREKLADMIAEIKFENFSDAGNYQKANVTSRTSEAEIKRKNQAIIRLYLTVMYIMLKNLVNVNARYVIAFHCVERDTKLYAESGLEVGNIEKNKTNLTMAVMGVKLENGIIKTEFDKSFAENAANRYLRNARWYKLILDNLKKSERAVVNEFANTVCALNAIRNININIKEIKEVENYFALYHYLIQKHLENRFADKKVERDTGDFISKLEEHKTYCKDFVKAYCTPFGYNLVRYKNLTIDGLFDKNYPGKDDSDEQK


biological target: T1, EsCas13d, nuclease-dead; assay: crRNA (strand 1, pre-loaded); Mg2+; 40 mM Tris-HCl pH 7.5, 150 mM NaCl, 6 mM MgCl2, 1 mM DTT, 0.1% Tween-20, 0.2 mg/ml BSA; 25 C; 10 min per concentration, then washed; details: tags: His6-TwinStrep-SUMO cleaved; N-terminal SNAP kept (SNAP-Surface 488); label: 3' end held by stalled T7 RNA polymerase

| Binder | Kd [nM] |
| --- | --- |
| target 1 insU 3' of 21,insC 3' of 3 (mixed) RNA 1: CACCCGUGCAAAAAUGCAGGGGUCUAAAACUGAGCGGAUAACCUCUCUAUGG RNA 2: GGGAAUGGAUCCACAUCUACGAAUUCGUACCUAUAGAGAGGUUAUCCGCUCCACCGAGAUCGGAAGAGCACACGU | 22.7 ± 1.4 |
| target 1 MT 5'PFS UUG 3'PFS AGA (mixed) RNA 1: CACCCGUGCAAAAAUGCAGGGGUCUAAAACUGAGCGGAUAACCUCUCUAUGG RNA 2: GGGAAUGGAUCCACAUCUACGAAUUCUUGCCAUAGAGAGGUUAUCCGCUCAAGAAGAUCGGAAGAGCACACGU | 90 ± 40 |
| target 1 MT 5'PFS UGC 3'PFS AAG (mixed) RNA 1: CACCCGUGCAAAAAUGCAGGGGUCUAAAACUGAGCGGAUAACCUCUCUAUGG RNA 2: GGGAAUGGAUCCACAUCUACGAAUUCUGCCCAUAGAGAGGUUAUCCGCUCAAAGAGAUCGGAAGAGCACACGU | 76 ± 33.5 |
| target 1 MT 5'PFS ACG 3'PFS ACA (mixed) RNA 1: CACCCGUGCAAAAAUGCAGGGGUCUAAAACUGAGCGGAUAACCUCUCUAUGG RNA 2: GGGAAUGGAUCCACAUCUACGAAUUCACGCCAUAGAGAGGUUAUCCGCUCAACAAGAUCGGAAGAGCACACGU | 25 ± 8 |
| target 1 insA 3' of 19,insG 3' of 6 (mixed) RNA 1: CACCCGUGCAAAAAUGCAGGGGUCUAAAACUGAGCGGAUAACCUCUCUAUGG RNA 2: GGGAAUGGAUCCACAUCUACGAAUUCGUACCAUAAGAGAGGUUAUCCGGCUCACCGAGAUCGGAAGAGCACACGU | 25.7 ± 2.3 |
| target 1 MT 5'PFS UUG 3'PFS AGU (mixed) RNA 1: CACCCGUGCAAAAAUGCAGGGGUCUAAAACUGAGCGGAUAACCUCUCUAUGG RNA 2: GGGAAUGGAUCCACAUCUACGAAUUCUUGCCAUAGAGAGGUUAUCCGCUCAAGUAGAUCGGAAGAGCACACGU | 84 ± 33 |
| target 1 MT 5'PFS ACA 3'PFS AAG (mixed) RNA 1: CACCCGUGCAAAAAUGCAGGGGUCUAAAACUGAGCGGAUAACCUCUCUAUGG RNA 2: GGGAAUGGAUCCACAUCUACGAAUUCACACCAUAGAGAGGUUAUCCGCUCAAAGAGAUCGGAAGAGCACACGU | 18 ± 6 |
| target 1 MT 5'PFS UAG 3'PFS UCG (mixed) RNA 1: CACCCGUGCAAAAAUGCAGGGGUCUAAAACUGAGCGGAUAACCUCUCUAUGG RNA 2: GGGAAUGGAUCCACAUCUACGAAUUCUAGCCAUAGAGAGGUUAUCCGCUCAUCGAGAUCGGAAGAGCACACGU | 20.1 ± 3.45 |
| target 1 MT 5'PFS GUA 3'PFS CCA (mixed) RNA 1: CACCCGUGCAAAAAUGCAGGGGUCUAAAACUGAGCGGAUAACCUCUCUAUGG RNA 2: GGGAAUGGAUCCACAUCUACGAAUUCGUACCAUAGAGAGGUUAUCCGCUCACCAAGAUCGGAAGAGCACACGU | 19.6 ± 2.4 |
| target 1 MT 5'PFS AGA 3'PFS ACG (mixed) RNA 1: CACCCGUGCAAAAAUGCAGGGGUCUAAAACUGAGCGGAUAACCUCUCUAUGG RNA 2: GGGAAUGGAUCCACAUCUACGAAUUCAGACCAUAGAGAGGUUAUCCGCUCAACGAGAUCGGAAGAGCACACGU | 29.5 ± 7 |
| target 1 MT 5'PFS ACU 3'PFS AAU (mixed) RNA 1: CACCCGUGCAAAAAUGCAGGGGUCUAAAACUGAGCGGAUAACCUCUCUAUGG RNA 2: GGGAAUGGAUCCACAUCUACGAAUUCACUCCAUAGAGAGGUUAUCCGCUCAAAUAGAUCGGAAGAGCACACGU | ~60 |
| target 1 insA 3' of 8,insA 3' of 3 (mixed) RNA 1: CACCCGUGCAAAAAUGCAGGGGUCUAAAACUGAGCGGAUAACCUCUCUAUGG RNA 2: GGGAAUGGAUCCACAUCUACGAAUUCGUACCAUAGAGAGGUUAUACCGCUACACCGAGAUCGGAAGAGCACACGU | 10.4 ± 0.4 |
| target 1 MT 5'PFS UCG 3'PFS CGA (mixed) RNA 1: CACCCGUGCAAAAAUGCAGGGGUCUAAAACUGAGCGGAUAACCUCUCUAUGG RNA 2: GGGAAUGGAUCCACAUCUACGAAUUCUCGCCAUAGAGAGGUUAUCCGCUCACGAAGAUCGGAAGAGCACACGU | 51 ± 22.5 |
| target 1 MT 5'PFS AGA 3'PFS ACU (mixed) RNA 1: CACCCGUGCAAAAAUGCAGGGGUCUAAAACUGAGCGGAUAACCUCUCUAUGG RNA 2: GGGAAUGGAUCCACAUCUACGAAUUCAGACCAUAGAGAGGUUAUCCGCUCAACUAGAUCGGAAGAGCACACGU | ~32 |
| target 1 MT 5'PFS GGG 3'PFS GCA (mixed) RNA 1: CACCCGUGCAAAAAUGCAGGGGUCUAAAACUGAGCGGAUAACCUCUCUAUGG RNA 2: GGGAAUGGAUCCACAUCUACGAAUUCGGGCCAUAGAGAGGUUAUCCGCUCAGCAAGAUCGGAAGAGCACACGU | 36 ± 13 |
| target 1 MT 5'PFS ACG 3'PFS ACU (mixed) RNA 1: CACCCGUGCAAAAAUGCAGGGGUCUAAAACUGAGCGGAUAACCUCUCUAUGG RNA 2: GGGAAUGGAUCCACAUCUACGAAUUCACGCCAUAGAGAGGUUAUCCGCUCAACUAGAUCGGAAGAGCACACGU | 10.4 ± 3.5 |
| target 1 MT 5'PFS CAA 3'PFS ACA (mixed) RNA 1: CACCCGUGCAAAAAUGCAGGGGUCUAAAACUGAGCGGAUAACCUCUCUAUGG RNA 2: GGGAAUGGAUCCACAUCUACGAAUUCCAACCAUAGAGAGGUUAUCCGCUCAACAAGAUCGGAAGAGCACACGU | ~27 |
| target 1 MT 5'PFS UAG 3'PFS UCC (mixed) RNA 1: CACCCGUGCAAAAAUGCAGGGGUCUAAAACUGAGCGGAUAACCUCUCUAUGG RNA 2: GGGAAUGGAUCCACAUCUACGAAUUCUAGCCAUAGAGAGGUUAUCCGCUCAUCCAGAUCGGAAGAGCACACGU | 63.5 ± 20 |
| target 1 MT 5'PFS UCG 3'PFS CGU (mixed) RNA 1: CACCCGUGCAAAAAUGCAGGGGUCUAAAACUGAGCGGAUAACCUCUCUAUGG RNA 2: GGGAAUGGAUCCACAUCUACGAAUUCUCGCCAUAGAGAGGUUAUCCGCUCACGUAGAUCGGAAGAGCACACGU | ~100 |
| target 1 MT 5'PFS CAA 3'PFS CAU (mixed) RNA 1: CACCCGUGCAAAAAUGCAGGGGUCUAAAACUGAGCGGAUAACCUCUCUAUGG RNA 2: GGGAAUGGAUCCACAUCUACGAAUUCCAACCAUAGAGAGGUUAUCCGCUCACAUAGAUCGGAAGAGCACACGU | 32.5 ± 9.5 |
| target 1 MT 5'PFS ACA 3'PFS CGG (mixed) RNA 1: CACCCGUGCAAAAAUGCAGGGGUCUAAAACUGAGCGGAUAACCUCUCUAUGG RNA 2: GGGAAUGGAUCCACAUCUACGAAUUCACACCAUAGAGAGGUUAUCCGCUCACGGAGAUCGGAAGAGCACACGU | ~70 |
| target 1 MT 5'PFS ACU 3'PFS AAA (mixed) RNA 1: CACCCGUGCAAAAAUGCAGGGGUCUAAAACUGAGCGGAUAACCUCUCUAUGG RNA 2: GGGAAUGGAUCCACAUCUACGAAUUCACUCCAUAGAGAGGUUAUCCGCUCAAAAAGAUCGGAAGAGCACACGU | ~75.5 |
| target 1 MT 5'PFS UUA 3'PFS UAU (mixed) RNA 1: CACCCGUGCAAAAAUGCAGGGGUCUAAAACUGAGCGGAUAACCUCUCUAUGG RNA 2: GGGAAUGGAUCCACAUCUACGAAUUCUUACCAUAGAGAGGUUAUCCGCUCAUAUAGAUCGGAAGAGCACACGU | 12.7 ± 1.35 |
| target 1 MT 5'PFS CAA 3'PFS ACU (mixed) RNA 1: CACCCGUGCAAAAAUGCAGGGGUCUAAAACUGAGCGGAUAACCUCUCUAUGG RNA 2: GGGAAUGGAUCCACAUCUACGAAUUCCAACCAUAGAGAGGUUAUCCGCUCAACUAGAUCGGAAGAGCACACGU | ~20.5 |
| target 1 MT 5'PFS GUA 3'PFS CCC (mixed) RNA 1: CACCCGUGCAAAAAUGCAGGGGUCUAAAACUGAGCGGAUAACCUCUCUAUGG RNA 2: GGGAAUGGAUCCACAUCUACGAAUUCGUACCAUAGAGAGGUUAUCCGCUCACCCAGAUCGGAAGAGCACACGU | 12.6 ± 2.1 |
| target 1 MT 5'PFS CAA 3'PFS ACG (mixed) RNA 1: CACCCGUGCAAAAAUGCAGGGGUCUAAAACUGAGCGGAUAACCUCUCUAUGG RNA 2: GGGAAUGGAUCCACAUCUACGAAUUCCAACCAUAGAGAGGUUAUCCGCUCAACGAGAUCGGAAGAGCACACGU | 15 ± 5.5 |
| target 1 MT 5'PFS UAG 3'PFS UCA (mixed) RNA 1: CACCCGUGCAAAAAUGCAGGGGUCUAAAACUGAGCGGAUAACCUCUCUAUGG RNA 2: GGGAAUGGAUCCACAUCUACGAAUUCUAGCCAUAGAGAGGUUAUCCGCUCAUCAAGAUCGGAAGAGCACACGU | 25 ± 5 |
| target 1 MT 5'PFS GUA 3'PFS CCU (mixed) RNA 1: CACCCGUGCAAAAAUGCAGGGGUCUAAAACUGAGCGGAUAACCUCUCUAUGG RNA 2: GGGAAUGGAUCCACAUCUACGAAUUCGUACCAUAGAGAGGUUAUCCGCUCACCUAGAUCGGAAGAGCACACGU | 7.3 ± 0.8 |
